According to patent publication US11976099B2, “Compositions and methods for treatment of bone associated diseases” (THE NATIONAL INSTITUTE FOR BIOTECHNOLOGY IN THE NEGEV LTD., priority 2016, dated 2024):
Numbering of substitutions follows the chain as printed. Numbers in names are those of the source.

B1: M-CSFM: 158 amino acid M-CSF with cysteine at position 31 replaced by serine (SEQ ID NO: 2) (protein)
chain: EEVSEYCSHMIGSGHLQSLQRLIDSQMETSSQITFEFVDQEQLKDPVCYLKKAFLLVQDIMEDTMRFRDNTPNAIAIVQLQELSLRLKSCFTKDYEEHDKACVRTFYETPLQLLEKVKNVFNETKNLLDKDWNIFSKNCNNSFAECSSQGHERQSEGS
B2: M-CSFC31S,M27R: M-CSF double mutant containing both C31S and M27R; monomeric, monospecific c-FMS antagonist (protein)
chain: B1 chain with M27R
B3: M-CSFWT: wild-type human M-CSF, disulfide-bond-linked homodimer which binds and activates c-FMS (protein)
chain: B1 chain with S31C

Tests used:
[1] = test system: human peripheral blood CD14+ monocytes differentiating to osteoclasts; experiment: Osteoclast differentiation assay of human CD14+ monocytes (TRAP staining); type: cell-based; details: Example 14, CD14+ cells; for osteoclast formation: 50, 250, 1000 nM with M-CSFWT and RANKL
Description: Differentiation assay—BMMs and CD14+ cells were obtained and grown as described above. The plates containing the monocytes were washed with PBS; the cells were detached using a cell scraper for BMMs or Accutase (Biological industries, Israel) for CD14^+; and 2×10^4 BMMs or 1×10^4 CD14^+ cells were transferred to each well in a 96-well plate. Osteoclast differentiation was induced as described in the ‘phosphorylation assay’ section. To determine the influence of M-CSFC31S and the M-CSFC31S,M27R on osteoclast differentiation, the proteins were added to the differentiation medium (with M-CSF and RANKL) in different concentrations (50 nM, 1 μM and 5 μM for BMMs and 50 nM, 250 nM and 1 μM for CD14^+). To determine the influence of human M-CSFWT on the differentiation, it was added to the cells in different concentrations (50 nM 1 μM and 5 μM) without adding murine M-CSFWT. Once the cells were fully differentiated, they were fixed with 4% paraformaldehyde and stained using the tartrate-resistant acid phosphatase (TRAP) staining kit (Sigma-Aldrich, USA) according to the manufacturer's protocol. As the positive control, cells were incubated with M-CSF and RANKL without inhibitors, and the negative control was comprised of cells that were incubated in differentiation medium without RANKL. […] Cells in each image were counted in a double-blind manner, and the number of nuclei in the osteoclasts was determined using ImageJ software. For the positive control of BMMs, an average of 28.33 osteoclasts and 135 nuclei per well were counted. For CD14^+ positive control, the average numbers of osteoclasts and nuclei were 14.5 and 75, respectively, per well. The results for each parameter were normalized to the positive control values.
In light of the above-described decrease in phosphorylation, it was hypothesized that incubation of M-CSFC31S,M27R with differentiating monocytes would result in decreased formation of osteoclasts. To test this premise, either BMMs or CD14^+ cells were incubated with murine or human M-CSFWT (20 ng/ml), respectively, and murine RANKL (20 ng/ml) together with M-CSFC31S and M-CSFC31S,M27R at concentrations of 50 and 1000 and 5000 nM for BMMs and 50, 250, 1000 nM for CD 14^+ cells. The cells were allowed to differentiate for 96 h or until they reached full differentiation. In BMMs incubated with M-CSFC31S, osteoclasts formed rapidly, and therefore they differentiated only for 72 h. Then, the cells were stained with a tartrate-resistant acid phosphatase (TRAP) staining kit (FIGS. 19A, B). […] This inhibition of differentiation behavior was observed also for M-CSFWT.

[2] = Small angle X-ray scattering (SAXS) analysis; type: physicochemical; details: 3, 5 and 7 mg/ml
Procedure: The scattering intensity was recorded in the interval 0.012<q<0.7 Å−1. The measurements were performed under vacuum at 25° C. All three M-CSF variants were measured at concentrations of 3, 5 and 7 mg/ml. The scattering of the buffer was also measured and subtracted from the scattering of the samples. The magnitude of the scattering vector is described by the following equation: […]
Values for the radius of gyration (Rg) were derived from the small angle part of the SAXS profile (Guinier region, qRg<1.0), in PRIMUS [43]. In this region, Guinier approximation is applicable:
Rg values were also derived using in-house scripts designed to perform an automatic search for the best fitting parameters using GNOM (Svergun, D. I. (1992). J. Appl. Crystallogr. 25, 495-503). CRYSOL ([…] and Koch, M. H. J. (1995) J. Appl. Crystallogr. 28, 768-773) was used to compute the theoretical SAXS spectra based on the M-CSFWT crystal structure (PDB ID code: 3UF2). These spectra served as a reference for reconstruction of the experimental SAXS data. GASBOR (Svergun, D. I., Petoukhov, M. V. and Koch, M. H. J. (2001) Biophys. J. 80, 2946-2953) was used to reconstruct the molecular envelope based on the best GNOM fit obtained from the in-house script. Ten models were calculated for each sample and averaged using DAMAVER (Volkov, V. V. and Svergun, D. I. (2003) J. Appl. Crystallogr. 36, 860-864).
Next, the size of the M-CSF variants was evaluated in solution. M-CSFWT, M-CSFC31S and M-CSFC31S,M27R at concentrations of 0.5 mg/ml were subjected to dynamic light scattering (DLS) analysis at an angle of 90°. The peaks for the most abundant species in each sample were compared (FIG. 16B), and an estimated hydrodynamic radius was calculated from each peak. […] To confirm that the oligomeric state of M-CSFC31S,M27R is not concentration dependent, all M-CSF variants were subjected to SAXS measurements at concentrations of 3, 5 and 7 mg/ml. Of note is that the Rg values remained within a similar range for M-CSFWT and M-CSFC31S. […]

Row | Molecule | number of osteoclasts and number of nuclei [1] | osteoclast formation [1] | oligomeric state in solution [2]
1 | B1 | the opposite result | highly accelerated in the two lower concentrations | exist as dimers in solution
2 | B2 | a decrease in both parameters, in a dose-dependent manner | significantly inhibited, in a dose-dependent manner | is a monomer
3 | B3 | – | – | exist as dimers in solution
